How the values were obtained:
HERC2 = HERC2 (human, UniProt O95714 1-4834); experiment: IP/MS, LZTR1 wild type-FLAG, U87
How it was run: (§1)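 Extracted peptides in 3% acetonitrile/0.1% formic acid ran on a 50 cm C18 column into an Orbitrap Fusion, with MaxQuant identification and spectral counting.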

TRRAP [1] = target: T1, TRRAP (human, UniProt Q9Y4A5 2-3859, limits assumed); experiment: IP/MS, LZTR1 wild type-FLAG, U87
How it was run: as §1

TRAPPC11 = target: T2, TRAPPC11 (human, UniProt Q7Z392 1-1133, limits assumed); experiment: IP/MS, LZTR1 R810W-FLAG, U87
T2 sequence (looked up): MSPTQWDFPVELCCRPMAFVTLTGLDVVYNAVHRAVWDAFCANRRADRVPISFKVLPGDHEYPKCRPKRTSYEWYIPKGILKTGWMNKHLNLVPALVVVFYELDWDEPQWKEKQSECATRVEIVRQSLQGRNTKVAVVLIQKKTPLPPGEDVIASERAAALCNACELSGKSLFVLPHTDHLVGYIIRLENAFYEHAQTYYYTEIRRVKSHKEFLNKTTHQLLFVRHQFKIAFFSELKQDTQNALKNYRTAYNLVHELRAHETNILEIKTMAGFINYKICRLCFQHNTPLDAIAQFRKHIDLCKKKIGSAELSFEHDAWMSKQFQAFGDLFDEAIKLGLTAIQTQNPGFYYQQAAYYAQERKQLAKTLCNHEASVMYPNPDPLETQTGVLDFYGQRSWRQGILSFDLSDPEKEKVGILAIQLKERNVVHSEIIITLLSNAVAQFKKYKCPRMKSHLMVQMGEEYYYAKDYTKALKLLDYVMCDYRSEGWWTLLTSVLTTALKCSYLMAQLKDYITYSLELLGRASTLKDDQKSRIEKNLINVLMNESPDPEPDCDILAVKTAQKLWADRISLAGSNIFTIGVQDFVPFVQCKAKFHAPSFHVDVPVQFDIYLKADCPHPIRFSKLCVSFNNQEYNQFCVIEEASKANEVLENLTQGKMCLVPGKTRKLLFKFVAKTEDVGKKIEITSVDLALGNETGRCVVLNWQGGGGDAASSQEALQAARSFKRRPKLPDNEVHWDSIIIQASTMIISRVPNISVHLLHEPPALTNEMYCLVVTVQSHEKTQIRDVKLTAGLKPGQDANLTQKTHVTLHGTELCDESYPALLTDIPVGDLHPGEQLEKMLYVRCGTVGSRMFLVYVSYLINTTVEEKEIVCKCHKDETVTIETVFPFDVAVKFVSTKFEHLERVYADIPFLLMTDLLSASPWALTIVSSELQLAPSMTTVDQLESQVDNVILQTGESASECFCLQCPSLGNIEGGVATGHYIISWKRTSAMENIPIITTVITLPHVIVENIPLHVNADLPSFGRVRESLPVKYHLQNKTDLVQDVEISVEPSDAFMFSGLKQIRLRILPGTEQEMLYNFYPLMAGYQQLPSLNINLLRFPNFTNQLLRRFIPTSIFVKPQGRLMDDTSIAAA
How it was run: as §1

TRRAP [2] = target: T1, TRRAP; experiment: IP/MS, LZTR1 R810W-FLAG, U87
How it was run: as §1

T1 sequence (Q9Y4A5 2-3859 limits assumed): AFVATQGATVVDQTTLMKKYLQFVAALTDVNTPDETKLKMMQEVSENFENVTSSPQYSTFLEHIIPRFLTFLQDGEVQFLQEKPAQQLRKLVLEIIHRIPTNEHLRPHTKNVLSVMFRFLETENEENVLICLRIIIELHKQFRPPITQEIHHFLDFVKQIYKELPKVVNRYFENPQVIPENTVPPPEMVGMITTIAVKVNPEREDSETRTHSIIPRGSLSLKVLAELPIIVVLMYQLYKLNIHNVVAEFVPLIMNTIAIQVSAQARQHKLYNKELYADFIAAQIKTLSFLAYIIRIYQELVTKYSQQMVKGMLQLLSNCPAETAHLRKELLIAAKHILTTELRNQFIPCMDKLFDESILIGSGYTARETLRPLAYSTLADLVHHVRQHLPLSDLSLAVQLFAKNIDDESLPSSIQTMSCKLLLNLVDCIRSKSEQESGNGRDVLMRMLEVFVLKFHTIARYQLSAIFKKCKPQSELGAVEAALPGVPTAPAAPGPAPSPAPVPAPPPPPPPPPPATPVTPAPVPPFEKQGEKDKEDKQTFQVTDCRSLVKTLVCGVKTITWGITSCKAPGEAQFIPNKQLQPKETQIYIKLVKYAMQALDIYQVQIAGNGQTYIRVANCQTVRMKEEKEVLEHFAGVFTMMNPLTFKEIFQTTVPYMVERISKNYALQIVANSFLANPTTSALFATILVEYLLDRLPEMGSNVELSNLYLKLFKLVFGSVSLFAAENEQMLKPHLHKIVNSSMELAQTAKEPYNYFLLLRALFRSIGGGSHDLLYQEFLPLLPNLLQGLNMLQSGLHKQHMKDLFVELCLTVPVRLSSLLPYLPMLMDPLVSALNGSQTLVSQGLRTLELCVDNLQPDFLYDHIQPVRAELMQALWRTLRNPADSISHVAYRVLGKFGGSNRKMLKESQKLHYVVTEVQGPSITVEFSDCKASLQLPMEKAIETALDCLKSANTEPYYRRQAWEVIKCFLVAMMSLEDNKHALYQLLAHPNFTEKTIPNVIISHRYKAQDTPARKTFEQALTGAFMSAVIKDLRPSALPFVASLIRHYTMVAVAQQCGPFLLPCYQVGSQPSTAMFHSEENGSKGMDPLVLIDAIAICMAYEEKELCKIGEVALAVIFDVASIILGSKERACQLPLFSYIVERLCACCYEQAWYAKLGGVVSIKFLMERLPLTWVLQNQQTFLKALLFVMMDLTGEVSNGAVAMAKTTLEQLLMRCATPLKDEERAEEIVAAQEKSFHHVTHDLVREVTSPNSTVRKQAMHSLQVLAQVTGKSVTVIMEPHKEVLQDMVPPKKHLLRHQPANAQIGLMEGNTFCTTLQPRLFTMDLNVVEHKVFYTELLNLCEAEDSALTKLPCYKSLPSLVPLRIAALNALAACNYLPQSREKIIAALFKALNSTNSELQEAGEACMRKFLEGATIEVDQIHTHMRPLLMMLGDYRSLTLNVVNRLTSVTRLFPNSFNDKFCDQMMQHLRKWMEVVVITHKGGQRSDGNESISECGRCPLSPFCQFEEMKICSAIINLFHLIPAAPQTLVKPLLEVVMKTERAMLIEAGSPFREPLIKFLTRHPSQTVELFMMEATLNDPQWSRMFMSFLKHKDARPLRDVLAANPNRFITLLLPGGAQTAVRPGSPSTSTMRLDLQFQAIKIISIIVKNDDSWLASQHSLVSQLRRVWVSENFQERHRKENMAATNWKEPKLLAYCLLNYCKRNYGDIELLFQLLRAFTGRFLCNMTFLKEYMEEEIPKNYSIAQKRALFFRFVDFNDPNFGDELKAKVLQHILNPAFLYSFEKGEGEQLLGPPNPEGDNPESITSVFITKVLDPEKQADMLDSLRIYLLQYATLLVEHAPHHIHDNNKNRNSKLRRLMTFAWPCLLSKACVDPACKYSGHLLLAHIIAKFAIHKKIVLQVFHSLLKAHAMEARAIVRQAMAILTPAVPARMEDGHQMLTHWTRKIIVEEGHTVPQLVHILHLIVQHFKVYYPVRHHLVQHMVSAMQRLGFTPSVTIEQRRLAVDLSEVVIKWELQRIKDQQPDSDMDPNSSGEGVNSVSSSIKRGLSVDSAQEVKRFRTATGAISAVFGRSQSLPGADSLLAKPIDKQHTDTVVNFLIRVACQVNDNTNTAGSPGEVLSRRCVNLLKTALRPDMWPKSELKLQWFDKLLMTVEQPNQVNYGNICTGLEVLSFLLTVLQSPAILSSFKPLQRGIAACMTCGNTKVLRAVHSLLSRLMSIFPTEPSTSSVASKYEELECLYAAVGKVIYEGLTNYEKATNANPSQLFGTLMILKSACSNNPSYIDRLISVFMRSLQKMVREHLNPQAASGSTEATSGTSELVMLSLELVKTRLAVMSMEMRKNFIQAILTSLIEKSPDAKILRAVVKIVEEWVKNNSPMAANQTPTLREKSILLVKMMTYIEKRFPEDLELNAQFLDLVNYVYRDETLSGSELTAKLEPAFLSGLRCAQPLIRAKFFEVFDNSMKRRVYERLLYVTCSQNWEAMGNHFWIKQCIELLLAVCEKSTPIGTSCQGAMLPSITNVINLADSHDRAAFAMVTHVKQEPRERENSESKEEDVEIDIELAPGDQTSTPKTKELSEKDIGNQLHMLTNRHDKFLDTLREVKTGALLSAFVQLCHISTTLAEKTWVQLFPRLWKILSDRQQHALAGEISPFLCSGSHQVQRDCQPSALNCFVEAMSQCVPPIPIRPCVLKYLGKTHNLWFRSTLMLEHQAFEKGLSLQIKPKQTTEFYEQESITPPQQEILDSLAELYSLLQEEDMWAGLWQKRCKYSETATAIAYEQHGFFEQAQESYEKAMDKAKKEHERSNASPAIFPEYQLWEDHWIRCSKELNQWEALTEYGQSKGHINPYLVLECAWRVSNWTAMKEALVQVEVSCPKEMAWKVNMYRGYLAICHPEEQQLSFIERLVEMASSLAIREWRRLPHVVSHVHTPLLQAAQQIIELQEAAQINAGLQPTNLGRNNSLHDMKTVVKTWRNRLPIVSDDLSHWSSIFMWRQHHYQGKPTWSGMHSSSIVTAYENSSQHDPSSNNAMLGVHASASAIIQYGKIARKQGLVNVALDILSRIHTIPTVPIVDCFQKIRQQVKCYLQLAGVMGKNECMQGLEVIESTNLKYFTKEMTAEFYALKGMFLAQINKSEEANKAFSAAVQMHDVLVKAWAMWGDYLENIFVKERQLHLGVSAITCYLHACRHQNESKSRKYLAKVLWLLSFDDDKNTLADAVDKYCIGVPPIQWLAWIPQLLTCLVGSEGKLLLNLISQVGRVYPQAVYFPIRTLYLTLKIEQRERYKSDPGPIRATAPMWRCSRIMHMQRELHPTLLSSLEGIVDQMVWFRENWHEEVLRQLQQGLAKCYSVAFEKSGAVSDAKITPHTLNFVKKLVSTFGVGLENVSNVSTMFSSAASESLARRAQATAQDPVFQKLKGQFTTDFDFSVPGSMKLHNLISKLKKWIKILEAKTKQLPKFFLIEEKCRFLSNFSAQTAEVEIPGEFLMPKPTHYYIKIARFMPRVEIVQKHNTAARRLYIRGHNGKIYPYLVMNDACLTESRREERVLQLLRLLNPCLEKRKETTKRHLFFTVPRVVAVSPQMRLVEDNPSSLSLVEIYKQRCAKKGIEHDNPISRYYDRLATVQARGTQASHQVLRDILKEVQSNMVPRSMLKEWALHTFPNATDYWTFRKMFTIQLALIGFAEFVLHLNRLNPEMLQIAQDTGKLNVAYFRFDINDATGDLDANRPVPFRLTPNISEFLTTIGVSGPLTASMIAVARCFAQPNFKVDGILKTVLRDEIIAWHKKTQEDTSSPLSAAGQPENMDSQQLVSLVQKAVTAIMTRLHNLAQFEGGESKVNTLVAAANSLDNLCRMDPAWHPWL

B1: LZTR1-FLAG (other, human, UniProt Q8N653 1-840, looked up)
chain: MAGPGSTGGQIGAAALAGGARSKVAPSVDFDHSCSDSVEYLTLNFGPFETVHRWRRLPPCDEFVGARRSKHTVVAYKDAIYVFGGDNGKTMLNDLLRFDVKDCSWCRAFTTGTPPAPRYHHSAVVYGSSMFVFGGYTGDIYSNSNLKNKNDLFEYKFATGQWTEWKIEGRLPVARSAHGATVYSDKLWIFAGYDGNARLNDMWTIGLQDRELTCWEEVAQSGEIPPSCCNFPVAVCRDKMFVFSGQSGAKITNNLFQFEFKDKTWTRIPTEHLLRGSPPPPQRRYGHTMVAFDRHLYVFGGAADNTLPNELHCYDVDFQTWEVVQPSSDSEVGGAEVPERACASEEVPTLTYEERVGFKKSRDVFGLDFGTTSAKQPTQPASELPSGRLFHAAAVISDAMYIFGGTVDNNIRSGEMYRFQFSCYPKCTLHEDYGRLWESRQFCDVEFVLGEKEECVQGHVAIVTARSRWLRRKITQARERLAQKLEQEAAPVPREAPGVAAGGARPPLLHVAIREAEARPFEVLMQFLYTDKIKYPRKGHVEDVLLIMDVYKLALSFQLCRLEQLCRQYIEASVDLQNVLVVCESAARLQLSQLKEHCLNFVVKESHFNQVIMMKEFERLSSPLIVEIVRRKQQPPPRTPLDQPVDIGTSLIQDMKAYLEGAGAEFCDITLLLDGHPRPAHKAILAARSSYFEAMFRSFMPEDGQVNISIGEMVPSRQAFESMLRYIYYGEVNMPPEDSLYLFAAPYYYGFYNNRLQAYCKQNLEMNVTVQNVLQILEAADKTQALDMKRHCLHIIVHQFTKVSKLPTLRSLSQQLLLDIIDSLASHISDKQCAELGADI
notes: Expressed in HEK 293T, HeLa or U87 cells; used as cell lysate; also called LZTR1 wild type-FLAG; LZTR1 WT; not shown: FLAG tag at the C-terminus
What does the source list for B1?
binding result (HERC2): binds; binding result (TRRAP [1]): binds

B2: LZTR1 R810W-FLAG (other, human, UniProt Q8N653 1-840, looked up)
chain: MAGPGSTGGQIGAAALAGGARSKVAPSVDFDHSCSDSVEYLTLNFGPFETVHRWRRLPPCDEFVGARRSKHTVVAYKDAIYVFGGDNGKTMLNDLLRFDVKDCSWCRAFTTGTPPAPRYHHSAVVYGSSMFVFGGYTGDIYSNSNLKNKNDLFEYKFATGQWTEWKIEGRLPVARSAHGATVYSDKLWIFAGYDGNARLNDMWTIGLQDRELTCWEEVAQSGEIPPSCCNFPVAVCRDKMFVFSGQSGAKITNNLFQFEFKDKTWTRIPTEHLLRGSPPPPQRRYGHTMVAFDRHLYVFGGAADNTLPNELHCYDVDFQTWEVVQPSSDSEVGGAEVPERACASEEVPTLTYEERVGFKKSRDVFGLDFGTTSAKQPTQPASELPSGRLFHAAAVISDAMYIFGGTVDNNIRSGEMYRFQFSCYPKCTLHEDYGRLWESRQFCDVEFVLGEKEECVQGHVAIVTARSRWLRRKITQARERLAQKLEQEAAPVPREAPGVAAGGARPPLLHVAIREAEARPFEVLMQFLYTDKIKYPRKGHVEDVLLIMDVYKLALSFQLCRLEQLCRQYIEASVDLQNVLVVCESAARLQLSQLKEHCLNFVVKESHFNQVIMMKEFERLSSPLIVEIVRRKQQPPPRTPLDQPVDIGTSLIQDMKAYLEGAGAEFCDITLLLDGHPRPAHKAILAARSSYFEAMFRSFMPEDGQVNISIGEMVPSRQAFESMLRYIYYGEVNMPPEDSLYLFAAPYYYGFYNNRLQAYCKQNLEMNVTVQNVLQILEAADKTQALDMKRHCLHIIVHQFTKVSKLPTLWSLSQQLLLDIIDSLASHISDKQCAELGADI
notes: Stably expressed in U87 cells by lentivirus; also called LZTR1-FLAG-R810W; LZTR1 RW; not shown: FLAG tag
What does the source list for B2?
binding result (TRAPPC11): binds; binding result (TRRAP [2]): binds
